Tests used:
Settings in all cases: both partners purified
KAP1 S33-K434 L376A = molecular target: T1, KAP1 S33-K434 L376A (human, UniProt Q13263 33-434, L376A); experiment: co-IP; purified SMARCAD1 fragments (FLAG-CUE1,2, FLAG-CUE1) and KAP1 RBCC, 9.6μg each in 240μL, 4°C 1 hour; anti-FLAG M2 affinity gel 3 hours
T1 construct: KAP1 (TRIM28), human, UniProt Q13263, residues S33-K434 (RBCC domain); source: E. coli BL-21 CodonPlus (DE3)-RP, purified (Ni-NTA, Ulp1, Mono Q)

KAP1 S33-K434 I379A = molecular target: T2, KAP1 S33-K434 I379A (human, UniProt Q13263 33-434, I379A); experiment: as above
T2 construct: KAP1 (TRIM28), human, UniProt Q13263, residues S33-K434 (RBCC domain); source: E. coli BL-21 CodonPlus (DE3)-RP, purified (Ni-NTA, Ulp1, Mono Q)

KAP1 S33-K434 V380A = molecular target: T3, KAP1 S33-K434 V380A (human, UniProt Q13263 33-434, V380A); experiment: as above
T3 construct: KAP1 (TRIM28), human, UniProt Q13263, residues S33-K434 (RBCC domain); source: E. coli BL-21 CodonPlus (DE3)-RP, purified (Ni-NTA, Ulp1, Mono Q)

Ubiquitin = molecular target: T4, Ubiquitin (UniProt P0CG48 1-76); experiment: ITC; MicroCal ITC200, 10°C; 120 μM SMARCAD1 CUE1 or CUE1,2 in the cell, 9.8 mM mono-Ub in the syringe; 10 mM Tris-HCl pH 7.9, 100 mM NaCl, 5 mM β-ME; One set of sites model
T4 construct: ubiquitin, monomeric, the cut product of a ubiquitin precursor; also called mono-Ub; monomeric ubiquitin; source: bought: Boston Biochem (purified recombinant)

KAP1 S33-K434 = molecular target: T5, KAP1 S33-K434 (human, UniProt Q13263 33-434); experiment: ITC; MicroCal ITC200, 20°C; KAP1 RBCC (9-18 μM) in the cell, SMARCAD1 CUE1 or CUE1,2 (90-300 μM) in the syringe; 10 mM Tris-HCl pH 7.9, 100 mM NaCl, 5 mM β-ME; One set of sites model
T5 construct: KAP1 (TRIM28), human, UniProt Q13263, residues S33-K434 (RBCC domain); The crystal structures of shorter RBCC constructs show an antiparallel homodimer; also called KAP1 RBCC (S33-K434); KAP1 RBCC; source: E. coli BL-21 CodonPlus (DE3)-RP, purified (Ni-NTA, Ulp1, Mono Q)
T5 sequence (Q13263 33-434): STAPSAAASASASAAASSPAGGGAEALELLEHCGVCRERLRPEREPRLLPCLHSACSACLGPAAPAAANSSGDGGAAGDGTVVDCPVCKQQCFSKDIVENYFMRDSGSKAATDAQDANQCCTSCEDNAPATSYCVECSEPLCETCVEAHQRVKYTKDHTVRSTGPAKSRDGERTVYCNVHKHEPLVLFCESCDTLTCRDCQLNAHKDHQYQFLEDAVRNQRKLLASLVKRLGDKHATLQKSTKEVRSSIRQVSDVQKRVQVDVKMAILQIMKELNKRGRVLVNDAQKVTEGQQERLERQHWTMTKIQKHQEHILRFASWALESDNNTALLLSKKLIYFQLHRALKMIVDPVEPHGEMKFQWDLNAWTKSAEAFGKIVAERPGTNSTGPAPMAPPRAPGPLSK

T3 sequence (Q13263 33-434 V380A): as the sequence (Q13263 33-434) above, with V348A counted along it
T2 sequence (Q13263 33-434 I379A): as the sequence (Q13263 33-434) above, with I347A counted along it
T1 sequence (Q13263 33-434 L376A): as the sequence (Q13263 33-434) above, with L344A counted along it

binding result (KAP1 S33-K434 L376A): binds | binding result (KAP1 S33-K434 I379A): binds | binding result (KAP1 S33-K434 V380A): binds | Kd (Ubiquitin): ~389 µM | Kd (KAP1 S33-K434): ~0.21 µM
B1: FLAG-CUE1,2 (WT) (domain or fragment, human, UniProt Q9H4L7 95-347, looked up)
chain: SSDSEDVVSPNCSNTVQEKTFNKDTVIIVSEPSEDEESQGLPTMARRNDDISELEDLSELEDLKDAKLQTLKELFPQRSDNDLLKLIESTSTMDGAIAAALLMFGDAGGGPRKRKLSSSSEPYEEDEFNDDQSIKKTRLDHGEESNESAESSSNWEKQESIVLKLQKEFPNFDKQELREVLKEHEWMYTEALESLKVFAEDQDMQYVSQSEVPNGKEVSSRSQNYPKNATKTKLKQKFSMKAQNGFNKKRKKN
notes: SMARCAD1, human, UniProt Q9H4L7, residues S95-N347 (both CUE domains); also called SMARCAD1 CUE1,2 (S95-N347); wild-type CUE1,2; source: E. coli BL-21 CodonPlus (DE3)-RIL, purified (Ni-NTA, Ulp1, Mono Q if required)

— paper PMC6688830, “A Ubiquitin-Binding Domain that Binds a Structural Fold Distinct from that of Ubiquitin” (Structure(London, England:1993), 2019)
